Assay results from article PMC9798971, “Alarming and Calming: Opposing Roles of S100A8/S100A9 Dimers and Tetramers on Monocytes” (Advanced Science, 2022).
Numbering of substitutions follows the chain as printed. Blank lines part the entries; values can stand above or below the binder they belong to.

Assays:
[1] = target: T1, S100A8/S100A9-tetramer (murine) (murine, UniProt P27005 1-89; P31725 1-113); assay: ELISA
T1 chain 1: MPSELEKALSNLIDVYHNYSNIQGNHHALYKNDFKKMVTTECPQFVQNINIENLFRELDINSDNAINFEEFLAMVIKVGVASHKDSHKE
T1 chain 2: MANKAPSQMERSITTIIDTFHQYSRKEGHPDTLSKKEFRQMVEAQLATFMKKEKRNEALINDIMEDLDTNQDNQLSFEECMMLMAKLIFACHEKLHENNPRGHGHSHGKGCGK

murine S100A9 = target: T2, murine S100A9 (murine, UniProt P31725 1-113); assay: reconstitution by refolding together, anion exchange chromatography; equal amounts of the two purified proteins mixed with 1 mM DTT, denatured at pH 2, renatured by stepwise increase of pH to 7.4; residual homodimers separated by anion exchange chromatography; details: both partners purified
T2 construct: S100A9 (MRP14), murine; also called MRP14
T2 sequence (looked up): T1 chain 2

murine S100A9-N70A = target: T3, murine S100A9-N70A (murine, UniProt P31725 1-113, N70A); assay: as above; details: both partners purified
T3 sequence (looked up): T1 chain 2 with N70A

Kd [1]: 5.06 nM
B1: recombinant mouse CD69, His-tagged extracellular domain (domain or fragment)
chain: NVGKYNCPGLYEKLESSDHHVATCKNEWISYKRTCYFFSTTTKSWALAQRSCSEDAATLAVIDSEKDMTFLKRYSGELEHWIGLKNEANQTWKWANGKEFNSWFNLTGSGRCVSVNHKNVTAVDCEANFHWVCSKPSR

binding result (murine S100A9): binds | binding result (murine S100A9-N70A): binds
B2: murine S100A8 (natural protein, UniProt P27005 1-89, looked up)
chain: T1 chain 1
notes: S100A8 (MRP8), murine; also called MRP8
